Data on four molecules can be found in patent publication US8202696 (MAX PLANCK GESELLSCHAFT ZUR FORDERUNG DER WISSENSCHAFTEN E V, dated 2012).

The chains are these.
B1: myc-tagged B-box 1 of the MID1 protein (peptide, not shown: small tags and cut ends)
peptide: TMTSAEKVLCQFCDQDPAQDAVKTCVTCEVSYCDECLKATHPNKKPFTGHRLIEPIPD
B2: small part of α4 (44 amino acids), yeast two-hybrid deletion construct (peptide)
peptide: ERPPVKPFILTRNMAQAKVFGAGYPSLPTMTVSDWYEQHRKYGA
notes: The range 236-279 is inferred from the equal length of 44 residues; also called peptidic fragment of α4
B3: α4 protein, full-length, in the yeast two-hybrid system (other, human, UniProt P78318 2-339, looked up)
chain: AAEDELQLPRLPELFETGRQLLDEVEVATEPAGSRIVQEKVFKGLDLLEKAAEMLSQLDLFSRNEDLEEIASTDLKYLLVPAFQGALTMKQVNPSKRLDHLQRAREHFINYLTQCHCYHVAEFELPKTMNNSAENHTANSSMAYPSLVAMASQRQAKIQRYKQKKELEHRLSAMKSAVESGQADDERVREYYLLHLQRWIDISLEEIESIDQEIKILRERDSSREASTSNSSRQERPPVKPFILTRNMAQAKVFGAGYPSLPTMTVSDWYEQHRKYGALPDQGIAKAAPEEFRKAAQQQEEQEEKEEEDDEQTLHRAREWDDWKDTHPRGYGNRQNMG
notes: mature; also called alpha4; IGBP1 gene product; not shown: two-hybrid fusion partner
B4: MID1 B-box 1 (residues 110-165), yeast two-hybrid bait (other)
chain: TMTSAEKVLCQFCDQDPAQDAVKTCVTCEVSYCDECLKATHPNKKPFTGHRLIEPI
notes: also called BB1; isolated B-Box1; not shown: two-hybrid fusion partner; not described

The target in test [1] is T1, endogenous α4 of the transfected human cell lines (HeLa, U373MG) (UniProt P78318 2-339).
T1 sequence (looked up): B3 chain
As to the kind of experiment: cell-based or functional assay.

In test [2] the target is B4. As to the kind of experiment: yeast two-hybrid, deletion studies with α4 (preliminary data).
Another test has as its target T2, HHARI (UniProt Q9Y4X5 1-557, limits assumed).
T2 construct: Two-hybrid fusion protein; fusion partner not described
As to the kind of experiment: yeast two-hybrid, growth on his- leu- trp- plate.

The next test deals with T3, PARKIN (UniProt O60260 1-465, limits assumed).
T3 construct: Two-hybrid fusion protein; fusion partner not described
T3 sequence (O60260 whole entry, the tested form may be a part): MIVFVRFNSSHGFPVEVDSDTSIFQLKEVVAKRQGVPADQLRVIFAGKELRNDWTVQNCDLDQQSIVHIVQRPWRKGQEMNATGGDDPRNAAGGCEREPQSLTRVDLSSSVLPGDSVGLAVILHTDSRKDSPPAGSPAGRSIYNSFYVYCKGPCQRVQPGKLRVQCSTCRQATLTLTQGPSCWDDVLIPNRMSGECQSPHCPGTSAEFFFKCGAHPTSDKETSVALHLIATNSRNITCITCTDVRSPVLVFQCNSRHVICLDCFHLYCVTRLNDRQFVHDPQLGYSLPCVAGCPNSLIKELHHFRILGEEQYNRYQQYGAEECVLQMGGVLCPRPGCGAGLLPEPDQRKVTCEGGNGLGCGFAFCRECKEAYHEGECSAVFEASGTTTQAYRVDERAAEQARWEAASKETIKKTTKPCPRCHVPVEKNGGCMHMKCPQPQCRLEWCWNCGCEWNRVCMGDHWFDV
Description: yeast two-hybrid, growth on his- leu- trp- plate.

For test [3], the target named is B3. As to the kind of experiment: yeast two-hybrid, comparison of the α4-affinities of MID1 peptides.

T2 sequence (Q9Y4X5 whole entry, the tested form may be a part): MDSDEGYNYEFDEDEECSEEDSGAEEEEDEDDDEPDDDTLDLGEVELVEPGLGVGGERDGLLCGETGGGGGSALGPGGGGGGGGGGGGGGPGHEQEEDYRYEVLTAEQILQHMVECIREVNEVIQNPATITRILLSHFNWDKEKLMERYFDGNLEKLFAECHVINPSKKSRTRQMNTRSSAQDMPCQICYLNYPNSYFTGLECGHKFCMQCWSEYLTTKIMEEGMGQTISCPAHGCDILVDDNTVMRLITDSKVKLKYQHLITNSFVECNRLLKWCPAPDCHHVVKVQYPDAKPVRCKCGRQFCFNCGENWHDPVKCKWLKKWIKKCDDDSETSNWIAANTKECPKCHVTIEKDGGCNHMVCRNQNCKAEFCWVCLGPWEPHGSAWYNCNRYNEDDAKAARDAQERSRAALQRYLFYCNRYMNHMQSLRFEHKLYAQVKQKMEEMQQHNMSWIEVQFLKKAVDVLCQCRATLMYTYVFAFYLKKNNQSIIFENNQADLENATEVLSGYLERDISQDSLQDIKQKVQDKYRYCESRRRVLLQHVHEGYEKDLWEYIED

As to B1, in test [1], the “ratio between phosphorylated and dephosphorylated hFused-form (western blot)” value was 3 ratio; the “ratio between phosphorylated and dephosphorylated hFused-form (western blot, repeat)” value turned out to be 3 ratio.

Consider B2, for which the “strength of interaction relative to full-length α4” value in test [2] was above 10 times.

As to B3, the binding result with HHARI and with PARKIN was “no binding” throughout.

As to B4, the “fold increase of affinity for α4 compared to the full length MID1 protein” value in test [3] stood at 10 fold.
